According to patent US20220096653A1, “CONJUGATE COMPRISING LIGAND AND CEACAM5 ANTIBODY FAB FRAGMENT” (ASTELLAS PHARMA INC., priority 2019, published 2022):
Where “and” joins values, the source holds several entries; their conditions need not be identical. Equal values may be shown once.

Legend:
[1] = mouse, in vivo; cited from earlier work
liver metastasis = conditions: compared with the normal liver; cited from earlier work
[2] = target: human cancer-specific MUC1 peptide (PTL 1) (human); experiment: ELISA on immobilised human cancer-specific MUC1 peptide, 4-parameter fit; one of 3 runs (Example 6-2)
[3] = target: human cancer-specific MUC1 peptide (PTL 1) (human); experiment: ELISA on immobilised human cancer-specific MUC1 peptide, 4-parameter fit; one of 3 runs (Example 6-1)
[4] = target: T1, CEACAM5 (R&D Systems, 4128-CM-050) (human, UniProt P06731 35-685); experiment: ELISA on immobilised CEACAM5, 4-parameter fit; geometric mean of 9 runs
T1 construct: Immobilised on the ELISA plate; also called human CEACAM5
T1 sequence (looked up): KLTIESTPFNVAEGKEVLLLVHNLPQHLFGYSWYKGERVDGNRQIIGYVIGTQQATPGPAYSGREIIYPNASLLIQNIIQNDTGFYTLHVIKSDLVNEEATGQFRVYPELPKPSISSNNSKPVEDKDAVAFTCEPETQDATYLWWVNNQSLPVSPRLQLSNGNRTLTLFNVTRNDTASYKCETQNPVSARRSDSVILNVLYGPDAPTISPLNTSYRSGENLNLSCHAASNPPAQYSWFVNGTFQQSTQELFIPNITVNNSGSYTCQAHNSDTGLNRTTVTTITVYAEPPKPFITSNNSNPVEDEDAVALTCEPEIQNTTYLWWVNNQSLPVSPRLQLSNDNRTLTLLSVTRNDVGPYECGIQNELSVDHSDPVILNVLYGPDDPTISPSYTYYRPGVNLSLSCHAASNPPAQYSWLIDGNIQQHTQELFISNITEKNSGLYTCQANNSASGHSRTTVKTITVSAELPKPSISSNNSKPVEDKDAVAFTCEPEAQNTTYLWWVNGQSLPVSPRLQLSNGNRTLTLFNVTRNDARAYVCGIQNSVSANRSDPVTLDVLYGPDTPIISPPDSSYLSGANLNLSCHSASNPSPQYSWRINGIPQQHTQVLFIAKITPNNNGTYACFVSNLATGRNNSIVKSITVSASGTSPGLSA
Protocol: (§1) Each anti-human CEACAM5 antibody Fab fragment conjugate prepared in Example 2 was subjected to ELISA to evaluate the binding activity thereof to CEACAM5. In the present test, a phosphate buffer (Nacalai Tesque Inc., 0.1 mol/L-Phosphate Buffer Solution (pH 7.2)) prepared to 10 mM by diluting 10-fold with distilled water was used as a solvent for an antigen immobilization liquid, and 20×PBS/Tween 20 Buffer (Thermo Fisher Scientific Inc., 28352) diluted 20-fold with distilled water was used as a wash liquid. In addition, for bovine serum albumin (BSA) used in the present test, 30% Bovine Serum Albumin solution (Sigma-Aldrich, Inc., A9576-50ML) was added in an appropriate proportion for use. CEACAM5 (R&D Systems, 4128-CM-050) was diluted with a 10 mM phosphate buffer (pH 7.2) to 0.1 μg/mL, and added to a Nunc MaxiSorp White 384 plate (Nunc, 4603272) at 30 μL per well, and the plate was incubated overnight at 4° C. for immobilization. The CEACAM5 immobilization liquid was removed by reverse centrifugation, and then blocking was carried out by adding a PBS/Tween 20 buffer containing 5.0% BSA. […] The substrate was incubated at room temperature for 15 minutes, and then a signal value thereof was measured using an Envision counter (PerkinElmer, Inc.).
The test for each antibody was carried out in duplicate, and an EC₅₀ value was calculated using a 4-parameter logistic curve model.

[5] = target: T1, CEACAM5 (R&D Systems, 4128-CM-050); experiment: ELISA on immobilised CEACAM5, 4-parameter fit; one of 2 runs (Example 3-2)
Protocol: as §1
The test for each antibody was carried out in duplicate, and the EC₅₀ value was calculated using a 4-parameter logistic curve model.

[6] = parameters: species or system mice (BALB/c nu/nu); conditions: mouse, in vivo
Protocol: (§2) A Gd-labeled conjugate of the conjugate containing a peptide linker produced in one of the above Examples was administered from the tail vein of tumor-bearing mice so that the protein mass was 0.02 mg (100 μL) per animal. As the tumor-bearing mice used in the present Example, mice (BALB/c nu/nu) that were in a tumor-bearing state brought about by transplanting human colorectal cancer cell line LS174T cells (ATCC(registered trademark); CL-188) at 2.0 to 5.0×10^6 cells/mouse subcutaneously on the back before administration of the sample were used. 24 hours after administration of the sample, the mice were sacrificed, the kidneys and the tumor were removed, and the amounts of Gd in the kidneys and in the tumor were measured using ICP-MS. The present test was carried out in 3 cases in each group, and the mean value of the 3 cases was calculated. The amount of Gd contained per kidney after administration was shown as a percentage of the amount of Gd administered (% of dose/tissue), and the amount of Gd contained per g of tumor tissue was shown as a percentage of the total amount of Gd administered (% of dose/g).

[7] = Kidney accumulation evaluation test of Gd-labeled conjugates, normal mice (Example 4-1)
Protocol: A Gd-labeled conjugate of the conjugate containing a peptide linker produced in one of the above Examples was administered from the tail vein of mice (BALB/c or BALB/c nu/nu) so that the protein mass was 0.02 mg (100 μL) per animal. After about 24 hours, the mice were sacrificed and the kidneys were removed, and the amount of Gd in the kidneys was measured using ICP-MS. The present test was carried out in 3 cases in each group, the mean value of the 3 cases was calculated, and the amount of Gd contained per kidney after administration was shown as a percentage (% of dose/tissue) of the total amount of Gd administered.
Based on the percentage of the control conjugate (% of dose/tissue), the proportion of decrease in the amount of Gd contained in the kidneys of each of the conjugates having a peptide linker was determined and shown in Table 28.

[8] = system: human colorectal cancer cell line LS174T cells; experiment: Amount of tumor accumulation of Gd-labeled conjugates, LS174T tumor-bearing mice (Example 4-4); conditions: Gd per g of tumor tissue, 24 hours, mean of 3 cases
Protocol: as §2

**Q.** Which “accumulation in the kidneys” value [1] does the source give for “[^111In]DOTA-Rituxan Fab: conjugate of [^111In]DOTA-Rituxan Fab (NPL 11)” here?
**A.** highly accumulated in the kidneys

**Q.** With “CEA-Scan: mouse monoclonal antibody NP-4 Fab′ labeled with ^99mTc; FDA-approved diagnostic drug for colorectal cancer” as the molecule, how does the “uptake into lesion sites” value (liver metastasis) read?
**A.** does not exceed the uptake into the normal liver

B1: anti-human MUC1 antibody Fab fragment P10-2 (Fab, V domains shown)
VH: QVQLVQSGAEVKKPGASVKVSCKASGYTFTNYGLSWVRQAPGQGLEWMGENHPGSGIIYHNEKFRGRVTLTADRSTSTAYMELSSLRSEDTAVYYCARSSGTRGFDYWGQGTLVTVSS
VL: DVVMTQTPLSLSVTPGQPASISCRSSQSIVHSNGNTYLEWYLQKPGQSPQLLIYRVSNRFSGVPDRFSGSGSGTDFTLKISRVEAEDVGVYYCFQGSHGPWTFGQGTKLEIKR
modifications: glutamine of amino acid 1 modified to pyroglutamic acid (as Fab^5 is defined in paragraph 370)
**Q.** For B1, which EC50 [2] is on record?
**A.** 60 pM and 140 pM

**Q.** What about the EC50 [3] of the same molecule?
**A.** 60 pM and 140 pM

B2: anti-human CEACAM5 antibody Fab fragment PB009-01 (Fab, V domains shown)
VH: EVQLVESGGGLVQPGGSLRLSCAASGFNIRDTYMHWVRQAPGKGLEWVARIDPANGNSRYVPKFQGRFTISADTSRNTAYLQMNSLRAEDTAVYYCAPFGYYVSDYAMAYWGQGTLVTVSS
VL: DIQLTQSPSSLSASVGDRVTITCRAGESVDIFGVGFLHWYQQKPGKAPKLLIYRASNLESGIPSRFSGSGSRTDFTLTISSLQPEDFATYYCQQTNEDPYTFGQGTKVEIKR
notes: Humanized from mouse T84.66; also called Fab^2; Fab^2 fragment having no labeling portion
**Q.** For B2, which EC50 [4] is on record?
**A.** 200 pM

**Q.** What about the EC50 [5] of the same molecule?
**A.** 140 pM and 210 pM

B3: [Gd/DOTA-[2,5-(1,2,3,4-tetrahydroisoquinoline)]-C(═O)-Met-Gly-Lys*-Z2(#N)]p-Fab^2 (conjugate)
heavy: EVQLVESGGGLVQPGGSLRLSCAASGFNIRDTYMHWVRQAPGKGLEWVARIDPANGNSRYVPKFQGRFTISADTSRNTAYLQMNSLRAEDTAVYYCAPFGYYVSDYAMAYWGQGTLVTVSSASTKGPSVFPLAPSSKSTSGGTAALGCLVKDYFPEPVTVSWNSGALTSGVHTFPAVLQSSGLYSLSSVVTVPSSSLGTQTYICNVNHKPSNTKVDKKVEPKSCD
light: DIQLTQSPSSLSASVGDRVTITCRAGESVDIFGVGFLHWYQQKPGKAPKLLIYRASNLESGIPSRFSGSGSRTDFTLTISSLQPEDFATYYCQQTNEDPYTFGQGTKVEIKRTVAAPSVFIFPPSDEQLKSGTASVVCLLNNFYPREAKVQWKVDNALQSGNSQESVTEQDSKDSTYSLSSTLTLSKADYEKHKVYACEVTHQGLSSPVTKSFNRGEC
**Q.** With B3 as the molecule, how does the “Renal residual amount (tumor-bearing mice) % of dose/tissue” value [6] read?
**A.** 7.30 % of dose/tissue

**Q.** What about the “Renal residual amount (tumor-bearing mice) Proportion of decrease” value [6] of the same molecule?
**A.** 71.74%

**Q.** What about the “Proportion of decrease (amount of Gd contained in the kidneys)” value ([7]; based on control conjugate Ex-No. 47, about 24 hours) of the same molecule?
**A.** 82.9%

**Q.** What about the “% of dose/tissue (amount of Gd contained per kidney)” value ([7]; tail vein, 0.02 mg protein per animal, about 24 hours, ICP-MS, mean of 3 cases) of the same molecule?
**A.** 5.3 % of dose/tissue

**Q.** What about the “Amount of tumor accumulation (tumor-bearing mice)” value [8] of the same molecule?
**A.** 4.53 % dose/g
